Reference: CN114591431A

Biological target: 重组人GAS6 his 蛋白(Novoprotein，Cat#C01W) (human) (UniProt Q14393)
Test: ELISA, coated human GAS6 his 0.5 ug/ml, positive control

Chain of UniProt Q14393 (Q14393 31-678 limits assumed, stated change not applied): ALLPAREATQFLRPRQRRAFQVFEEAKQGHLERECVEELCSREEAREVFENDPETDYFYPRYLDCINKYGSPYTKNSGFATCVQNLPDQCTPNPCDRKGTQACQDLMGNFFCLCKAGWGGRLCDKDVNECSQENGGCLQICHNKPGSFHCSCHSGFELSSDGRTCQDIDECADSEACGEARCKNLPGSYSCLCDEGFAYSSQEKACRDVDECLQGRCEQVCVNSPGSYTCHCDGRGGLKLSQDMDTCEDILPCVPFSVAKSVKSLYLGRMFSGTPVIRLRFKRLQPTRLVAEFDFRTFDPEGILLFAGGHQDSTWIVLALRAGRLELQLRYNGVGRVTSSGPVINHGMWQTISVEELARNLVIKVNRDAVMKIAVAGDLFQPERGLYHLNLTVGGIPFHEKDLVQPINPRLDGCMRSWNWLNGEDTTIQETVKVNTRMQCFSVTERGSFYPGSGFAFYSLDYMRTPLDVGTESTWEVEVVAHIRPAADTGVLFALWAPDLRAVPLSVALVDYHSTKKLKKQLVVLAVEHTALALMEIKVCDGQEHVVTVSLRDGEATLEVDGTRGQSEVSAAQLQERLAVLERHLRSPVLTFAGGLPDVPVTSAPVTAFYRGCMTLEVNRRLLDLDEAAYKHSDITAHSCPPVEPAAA

Which EC50 does the source give for “anti-huGas6 antibody (Santa cruz, sc-376087)” here?
Its EC50 is 0.43 nM.
